In US20230340555A1, “PRODUCTION OF GLYCOSYLATED CANNABINOIDS” (WILLOW BIOSCIENCES, INC., priority 2020, published 2023):

Tested on: CN3 yeast strain host cells
Experiment: Detection of glycosylated cannabinoids and cannabinoid precursors in yeast cells expressing UDP-glycosyl transferase (HPLC-MS)
Type: cell-based
Design: key to CBDA-glc / OLA-glc / CBGA-glc / CBGA-(glc)2 / CBD-glc / CBD-(glc)2 / OLA-(glc)2 / CBGA-glucuronic acid: (+) represents the lowest detected quantities; (++), (+++), and (++++) signify relative increasing intermediate detected levels; (++), (+++), and (++++) signify relative increasing intermediate detected levels; (++), (+++), and (++++) signify relative increasing intermediate detected levels; (+++++) represents the highest detected quantities; No detectable levels of a glycosylated cannabinoid compound or glycosylated cannabinoid precursor compound are indicated by “n.d.”
Details: for production of glycosylated cannabinoids or cannabinoid precursor compounds: pellet or supernatant of recombinant yeast host cells transformed with the UGT; for CBD-glc: 0.5 g/L CBD
From the text: CN3 yeast strain host cells were transformed as described in Example 1 with one of the following heterologous UGT genes: (1) AtUGT73C6, (2) AtUGT73B4, (3) AtUGT71 D1, (4) AtUGT76E12, (5) AtUGT88A1, (6) HaUGT76G1-L, (7) At5g49690, (8) AtUGT76C4, (9) CsUGT73C6, (10) SrUGT76C1, (11) AtUGT85A3, (12) AtUGT73B1, (13) Atg65550, (14) AtUGT76B1, (15) ATUGT76B1, (16) CsUGT75B2, (17) CsUGT73B4, (18) CsUGT73B1, (19) CsUGT75D1-DN11028, and (20) CsUGT71D1-DN48028. The transformed host cells were pre-grown overnight in yeast extract peptone dextrose (YPD) growth medium and then back diluted into yeast extract peptone galactose (YPG) to OD600 = 0.2. […] Strains were incubated for 20 h at 28° C. rotating at 600 RPM in an EPOCH|2 microplate reader (BioTek). Subsequently, samples were treated with an extraction solvent (80 % Acetonitrile, 20 % Methanol) for 1 hour rotating at 100 RPM. After 20 minutes centrifugation at 12,000 RPM, the supernatant was filtered with a basix 13 mm syringe filter (0.22 µm pore size, Nylon membrane) and transferred to a new tube for further analysis.
Glycosylated cannabinoid compounds and glycosylated cannabinoid precursor compounds were assayed in the supernatant and the cellular pellet employing HPLC and HPLC-MS analysis. HPLC and HPLC-MS analysis was carried out as described below to detect the following glycosylated cannabinoid and cannabinoid precursor compounds: CBGA monoglucoside, CBGA diglucoside, CBDA monoglucoside, CBDA diglucoside, CBGA glucuronic acid, CBD monoglucoside, CBD diglucoside, olivetolic acid monoglucoside (“OliAcid monoglucoside”), olivetolic acid diglucoside (“OliAcid diglucoside”).
HPLC analysis was carried out on an Agilent Technologies 1290 Infinity system, consisting of a vacuum degasser, a binary pump, a thermostated autosampler, a thermostated column compartment and a diode array detector (DAD). A Zorbax Eclipse Plus EC-18 column (2.1 × 50 mm, 1.8 µm, Agilent, USA) was used with a mobile phase composed of 0.1% formic acid in both (A) water with 0.2 % Formic Acid and (B) Acetonitrile with 0.2 % Formic Acid. The chromatographic conditions were set as follows: 0.0-8.0 min linear gradient from 5 to 95% B; 8.1-9.09 min […], 9.10-11.0 min 5 to 95% A for equilibration of the column with the initial conditions. The flow rate was set at 0.4 ml/min. The column temperature was set at 40° C. The sample injection volume was 5 µL. The UV/DAD acquisitions were carried out in the range 190-400 nm and chromatograms were acquired at 265 and 350 nm.
HPLC-MS analysis was carried out to confirm the identity of the HPLC peaks using an Agilent Technologies 6530 Accurate-Mass quadrupole time of flight (QToF) mass spectrometer operating in negative ionization (ESI -) mode. The mass spectrometer experimental parameters were set as follows: the capillary voltage was 3.5 kV, the nebulizer (N2) pressure was 35 psi, the drying gas temperature was 350° C., the drying gas flow was 11 L/min and the skimmer voltage was 65 V. Data were acquired by Agilent Mass Hunter software. The mass spectrometer was operated in full-scan mode in the m/z range 50-1100. Extracted ion chromatograms (EICs) were obtained with an accuracy of 10 ppm m/z from total ion chromatogram (TIC) employing the m/z corresponding to the molecular ions [M-H]^- 385.1504 for Olivetolic Acid Mono-Glucoside, 547.2032 for Olivetolic Acid di-Glucoside, 521.2756 for CBGA Mono-Glucoside, 683.3284 for CBGA Di-Glucoside, 535.2549 for CBGA Glucuronic Acid, 519.2600 for CBDA Mono-Glucoside, 475.2701 for CBD Mono-Glucoside, 637.3302 for CBD Di-Glucoside.
The glycosylated cannabinoid compounds and glycosylated cannabinoid precursor compounds were detected in a relative and semi-quantitative fashion. […]

[1] = 20 h growth, detected in PELLET, 0.05 mM hexanoic acid
[2] = 20 h growth, detected in SUPERNATANT, 0.2 mM hexanoic acid

Molecule	OLA-glc [1]	OLA-glc [2]	production of glycosylated cannabinoids or cannabinoid precursor compounds	CBDA-glc [1]	CBGA-(glc)2 [1]	CBGA-glc [1]	CBGA-glucuronic acid [1]	OLA-(glc)2 [1]	CBD-glc (20 h growth, detected in PELLET)	CBGA-glc [2]	OLA-(glc)2 [2]	CBD-glc (20 h growth, detected in SUPERNATANT)
CsUGT73C6: UDP-glycosyl transferase from Cannabis sativa, amino acid sequence SEQ ID NO: 16 (protein, listed as Cannabis sativa) MASEPYKLHLIVIPFMAPGHFIPMADMARKLAEHGAMITLITLPVIAARIRPIIEQATENSNLKIQLVQVSLPLHEFGLPEGCDTVDLVPSRNLLLSFFIALDELQQPIEQVVSELKPRPSCIIADKHLPWTAEIATKFGIPRVLFDGMSCFSLLCNHMIRKSQVHLSVPMSVPFVVPGMPDHLEFTRNQLAADLYPNLEFGQKFHDRIRESEEGADGFLVNSFEELEWKYVEGYRKEKVGKAWCIGPVSLFNKTKLEVAQRGNNPAGAVDEKQCTEWLDSWPKSCVVYACLGSVSRLLIPQMIELGVALEASNKPFIWVIRGYDQEEEIEKWISESGFKERTKSRALLIFGWAPQVLILSHSSVGGFLTHCGWNSTLEGITYGKPMITWPMFAEQFYNQKLIVQVLKVGESVGPKFVVPYGREEEFGVFVLSKDILEAIEKVMAQDKEGEERRERVKRLSDMAQKAIEEGGSSYLDMKLFIEDIRNLHIS	++	++	detectable									
HaUGT76G1L: UDP-glycosyl transferase from Helianthus annuus, amino acid sequence SEQ ID NO: 2 (protein, listed as Helianthus annuus) METQTETTNTVRRNRRIIFFPLPYQGHINPMLQLANLLYSKGFSITILHTNFNKPKTSNYPHFTFKFILDNDPHDGRYSNLPLHGMGAFNRVFVFNEDGADELRHELELLMLASKEDDEHVSCLITDALWHFTQSVADSLSLPRLVLRTSSLFSFLIYASIPLLDDRGYLSLSDNTMALILDGLGYHDLSDNKRLEEQVEEFPMLKVKDIVKMGFKREKDGAGGMIDNMVKQTKTSSGIIWNSFKELEESELETIRRDIPAPSFPIPFAKHFTASSSSLLEHDRSFFPWLDQQPPKSVVYVSFGSVAQVEEKHFMEMVHGLVDSKQLFLWVVRPGFVSGSTWLEPLPDGFPGERGRIVKWAPQQEVLGHEAIGAFWTHGGWNSTLESVCEGVPMICSPFWGDQPLDARYVSDVWKVGVYLENGWKREEITGAIRRVMTDEEMRERARVLKQKLDVSLMKGGSSYESVESLVAYVSSF	++		detected	++								
AtUGT73B4: UDP-glycosyl transferase from Arabidopsis thaliana, amino acid sequence SEQ ID NO: 10 (protein, listed as Arabidopsis thaliana) MNREQIHILFFPFMAHGHMIPLLDMAKLFARRGAKSTLLTTPINAKILEKPIEAFKVQNPDLEIGIKILNFPCVELGLPEGCENRDFINSYQKSDSFDLFLKFLFSTKYMKQQLESFIETTKPSALVADMFFPWATESAEKIGVPRLVFHGTSSFALCCSYNMRIHKPHKKVASSSTPFVIPGLPGDIVITEDQANVTNEETPFGKFWKEVRESETSSFGVLVNSFYELESSYADFYRSFVAKKAWHIGPLSLSNRGIAEKAGRGKKANIDEQECLKWLDSKTPGSVVYLSFGSGTGLPNEQLLEIAFGLEGSGQNFIWVVSKNENQVGTGENEDWLPKGFEERNKGKGLIIRGWAPQVLILDHKAIGGFVTHCGWNSTLEGIAAGLPMVTWPMGAEQFYNEKLLTKVLRIGVNVGATELVKKGKLISRAQVEKAVREVIGGEKAEERRLRAKELGEMAKAAVEEGGSSYNDVNKFMEELNGRK	++++	+++++	detected		++	++++	++	++	++	++	++	++
AtUGT88A1: UDP-glycosyl transferase from Arabidopsis thaliana, amino acid sequence SEQ ID NO: 6 (protein, listed as Arabidopsis thaliana) MGEEAIVLYPAPPIGHLVSMVELGKTILSKNPSLSIHIILVPPPYQPESTATYISSVSSSFPSITFHHLPAVTPYSSSSTSRHHHESLLLEILCFSNPSVHRTLFSLSRNFNVRAMIIDFFCTAVLDITADFTFPVYFFYTSGAACLAFSFYLPTIDETTPGKNLKDIPTVHIPGVPPMKGSDMPKAVLERDDEVYDVFIMFGKQLSKSSGIIINTFDALENRAIKAITEELCFRNIYPIGPLIVNGRIEDRNDNKAVSCLNWLDSQPEKSVVFLCFGSLGLFSKEQVIEIAVGLEKSGQRFLWVVRNPPELEKTELDLKSLLPEGFLSRTEDKGMVVKSWAPQVPVLNHKAVGGFVTHCGWNSILEAVCAGVPMVAWPLYAEQRFNRVMIVDEIKIAISMNESETGFVSSTEVEKRVQEIIGECPVRERTMAMKNAAELALTETGSSHTALTTLLQSWSPK	+		detected			++						
AtUGT76E12: UDP-glycosyl transferase from Arabidopsis thaliana, amino acid sequence SEQ ID NO: 14 (protein, listed as Arabidopsis thaliana) MQVLGMEEKPARRSVVLVPFPAQGHISPMMQLAKTLHLKGFSITVVQTKFNYFSPSDDFTHDFQFVTIPESLPESDFKNLGPIQFLFKLNKECKVSFKDCLGQLVLQQSNEISCVIYDEFMYFAEAAAKECKLPNIIFSTTSATAFACRSVFDKLYANNVQAPLKETKGQQEELVPEFYPLRYKDFPVSRFASLESIMEVYRNTVDKRTASSVIINTASCLESSSLSFLQQQQLQIPVYPIGPLHMVASAPTSLLEENKSCIEWLNKQKVNSVIYISMGSIALMEINEIMEVASGLAASNQHFLWVIRPGSIPGSEWIESMPEEFSKMVLDRGYIVKWAPQKEVLSHPAVGGFWSHCGWNSTLESIGQGVPMICRPFSGDQKVNARYLECVWKIGIQVEGELDRGVVERAVKRLMVDEEGEEMRKRAFSLKEQLRASVKSGGSSHNSLEEFVHFIRTL	+++	+++	detected			+++				+		
AtUGT76C4: UDP-glycosyl transferase from Arabidopsis thaliana, amino acid sequence SEQ ID NO: 12 (protein, listed as Arabidopsis thaliana) MEKSNGLRVILFPLPLQGCINPMIQLAKILHSRGFSITVIHTCFNAPKASSHPLFTFIQIQDGLSETETRTRDVKLLITLLNQNCESPVRECLRKLLQSAKEEKQRISCLINDSGWIFTQHLAKSLNLMRLAFNTYKISFFRSHFVLPQLRREMFLPLQDSEQDDPVEKFPPLRKKDLLRILEADSVQGDSYSDMILEKTKASSGLIFMSCEELDQDSLSQSREDFKVPIFAIGPSHSHFPASSSSLFTPDETCIPWLDRQEDKSVIYVSIGSLVTINETELMEIAWGLSNSDQPFLWVVRVGSVNGTEWIEAIPEYFIKRLNEKGKIVKWAPQQEVLKHRAIGGFLTHNGWNSTVESVCEGVPMICLPFRWDQLLNARFVSDVWMVGIHLEGRIERDEIERAIRRLLLETEGEAIRERIQLLKEKVGRSVKQNGSAYQSLQNLINYISSF	++		detected									
